Test results taken from patent publication US20230406921A1 (MABWELL SHANGHAI BIOSCIENCE, published 2023).
Changes are numbered by the printed parent chain.

Columns and labels:
[1] = biological target: T1, CD47 on the surface of tumor cells (human, UniProt Q08722 19-323); experiment: FACS on U937 cells
T1 construct: whole, on cells; Same protein as m4; also called CD47 antigen on the surface of U937 and CCRF cells; SKOV-3

CD47-His = biological target: T2, CD47-His (human, UniProt Q08722 19-139, limits assumed); experiment: Fortebio BLI
T2 construct: not shown: His tag

[2] = biological target: T1, CD47 on the surface of tumor cells; experiment: FACS on CCRF cells
[3] = biological target: T3, recombinant antigen of the extracellular region of CD47 (Sino Biological, Cat: 12283-H08H) (human, UniProt Q08722 19-139); experiment: Fortebio BLI, recombinant CD47 extracellular region
T3 construct: extracellular domain; also called recombinant CD47 extracellular region; CD47 recombinant protein

[4] = biological target: T3, recombinant antigen of the …; experiment: Fortebio Octet QKe, antibody on AHC sensor, CD47 100 nM in solution
Experimental: The affinity of the antibody was determined by Octet QKe instrument of Fortebio Company. […] The kinetic parameters were determined.

[5] = biological target: T1, CD47 on the surface of tumor cells; experiment: FACS blocking assay on CCRF cells; blocked ligand FITC-labelled rhSIRPα-Fc
[6] = biological target: T1, CD47 on the surface of tumor cells; experiment: FACS blocking assay on U937 cells; blocked ligand FITC-labelled rhSIRPα-Fc
[7] = biological target: T4, CD47 on the surface of human red blood cells (human, UniProt Q08722 19-323); experiment: FACS, hRBC, 500 nM
T4 construct: whole, on cells; Same protein as m3, on red blood cells; also called hRBC; RBC
Experimental: (§1) The difference between the binding of the mutant to CD47 on the surface of tumor cells and CD47 on the surface of red blood cells was evaluated.

[8] = biological target: T1, CD47 on the surface of tumor cells; experiment: FACS, tumor cells, 1 nM
Experimental: as §1

[9] = biological target: T3, recombinant antigen of the …; experiment: Fortebio BLI, antibody on AHC sensor, CD47 extracellular region 100 nM; Table 6 (heavy chain mutant series);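 for koff: antibody held on the sensor through anti-human Fc capture, CD47 antigen in solution, association and dissociation phases each lasting 300 s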;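 for kon: antibody held on the sensor through anti-human Fc capture, CD47 antigen in solution, association and dissociation phases each lasting 300 s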
Experimental: (§2) The affinity between the obtained mutant antibody and the CD47 recombinant protein was determined by Fortebio. The antibody was immobilized on the surface of a sensor with the anti-human Fc capture antibody (AHC Sensor), and reacted with the recombinant antigen of the extracellular region of CD47 (with a working concentration of 100 nM) in the liquid phase. The duration for binding and dissociation was both 300 seconds. The kinetic parameters were determined.

[10] = biological target: T3, recombinant antigen of the …; experiment: Fortebio BLI, antibody on AHC sensor, CD47 extracellular region 100 nM;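 note: antibody held on the sensor through anti-human Fc capture, CD47 antigen in solution, association and dissociation phases each lasting 300 s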
Experimental: as §2

human PD-L1 on cells = biological target: T5, human PD-L1 on cells (human, UniProt Q9NZQ7 19-290); experiment: flow cytometry on A431 cells
T5 construct: whole, on cells; also called MC38-hPD-L1/hCD47 cells; A431 cells

[11] = biological target: T1, CD47 on the surface of tumor cells; experiment: flow cytometry on A431 cells

T5 sequence (Q9NZQ7 19-290): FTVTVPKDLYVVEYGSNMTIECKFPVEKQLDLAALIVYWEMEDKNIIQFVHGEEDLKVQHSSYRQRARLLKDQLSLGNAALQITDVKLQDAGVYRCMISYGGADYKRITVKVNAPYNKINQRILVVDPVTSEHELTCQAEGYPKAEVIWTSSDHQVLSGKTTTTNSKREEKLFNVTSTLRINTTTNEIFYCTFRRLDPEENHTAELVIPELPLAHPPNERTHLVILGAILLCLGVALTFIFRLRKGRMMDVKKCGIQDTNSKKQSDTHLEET

B1: humanized 140 (hz140) (antibody, human IgG4 S228P, kappa, V domains shown)
VH: QVQLVQSGAEVKKPGASVKVSCKASGYKFTNYVMHWVRQAPGQRLEWMGYINPYNDGIKYNEKFTGRVTITRDTSASTAYMELSSLRSEDTAVYYCAREGDFYANYGRLGFAYWGQGTLVTVSS
VL: DIQMTQSPSSLSASVGDRVTITCRASQDITNYLNWYQQKPGKAPKLLIYYTSRLHSGVPSRFSGSGSGTDYTFTISSLQPEDIATYFCQQGDTFPRTFGGGTKVEIKR
notes: also called anti-CD47 monoclonal antibody; anti-CD47 sidearm monoclonal antibody
EC50 (read off the curve) [1]: ~0.2 µg/mL | Kd (CD47-His): 1.5 nM | koff (CD47-His): 0.00037 s⁻¹ | kon (CD47-His): 247000 M⁻¹ s⁻¹ | EC50 (read off the curve) [2]: ~0.06 µg/mL | Kd [3]: 0.688 nM | koff [3]: 0.00022 s⁻¹ | kon [3]: 320000 M⁻¹ s⁻¹ | Kd [4]: 1.89 nM | koff [4]: 0.000933 s⁻¹ | kon [4]: 493000 M⁻¹ s⁻¹ | IC50 (read off the curve) [5]: ~0.3 µg/mL | IC50 (read off the curve) [6]: ~0.3 µg/mL

B2: h140Hm13/h140L (antibody, V domains shown)
VH: B1 VH with Q1E, H35S, G57A
VL: DIQMTQSPSSLSASVGDRVTITCRASQDITNYLNWYQQKPGKAPKLLIYYTSRLHSGVPSRFSGSGSGTDYTFTISSLQPEDIATYFCQQGDTFPRTFGGGTKVEIK
notes: Heavy chain mutant 140Hm13 with the unmutated light chain of hz140
FACS (MFI) [7]: 27400 MFI | FACS (MFI) [8]: 102000 MFI

B3: hz140-H/hz182-L (antibody, V domains shown)
VH: B1 VH
VL: B2 VL with T30S, I48L, F73L, I83F, D92A, T93G, F94R, R96Y
notes: Hybrid antibody: heavy chain of hz140 with the light chain of hz182
Kd [9]: 0.719 nM | koff [10]: 0.000226 s⁻¹ | kon [10]: 315000 M⁻¹ s⁻¹ | Kd [4]: 7.03 nM | koff [4]: 0.00108 s⁻¹ | kon [4]: 154000 M⁻¹ s⁻¹

B4: anti-PD-L1 monoclonal antibody (hz182) (antibody, human IgG4 S228P, kappa, V domains shown)
VH: QLVQSGAEVKKPGATVKISCKVSGFNIKDIYMHWVQQAPGKGLEWMGRIDPANANTKYDPKFQDRVTITADTSTNTAYMELSSLRSEDTAVYYCASGQLGPLGFDYWGQGTTVTVSS
VL: B1 VL with T30S, I48L, F73L, I83F, D92A, T93G, F94R, R96Y
notes: also called humanized anti-human PD-L1 antibody; anti-PD-L sidearm monoclonal antibody
EC50 (read off the curve) (human PD-L1 on cells): ~0.1 nM

B5: h140Hm13/h140Lm4 (antibody, V domains shown)
VH: B1 VH with Q1E, H35S, G57A
VL: B2 VL with I83F
FACS (MFI) [7]: 24200 MFI

B6: h140Hm13/h140Lm5 (antibody, V domains shown)
VH: B1 VH with Q1E, H35S, G57A
VL: B2 VL with D92A
FACS (MFI) [7]: 27300 MFI

B7: h140Hm13/h140Lm7 (antibody, V domains shown)
VH: B1 VH with Q1E, H35S, G57A
VL: B2 VL with F94R
FACS (MFI) [7]: 16700 MFI | FACS (MFI) [8]: 40200 MFI

B8: h140Hm13/h140Lm9 (antibody, V domains shown)
VH: B1 VH with Q1E, H35S, G57A
VL: B2 VL with D92A, T93G, F94R
notes: also called h140Lmut9; mut9
FACS (MFI) [7]: 17700 MFI | FACS (MFI) [8]: 34600 MFI

B9: h140Hm13/h140Lm6 (antibody, V domains shown)
VH: B1 VH with Q1E, H35S, G57A
VL: B2 VL with T93G
FACS (MFI) [7]: 27200 MFI

B10: h140Hm13/h140Lm3 (antibody, V domains shown)
VH: B1 VH with Q1E, H35S, G57A
VL: B2 VL with F73L
FACS (MFI) [7]: 30600 MFI

B11: h140Hm13/h140Lm2 (antibody, V domains shown)
VH: B1 VH with Q1E, H35S, G57A
VL: B2 VL with I48L
FACS (MFI) [7]: 26100 MFI

B12: 1F8 (antibody, human IgG4, V domains shown)
VH: KVQLVESGGGLVKPGGSLRLSCAASGFTFSNAWMNWVRQAPGKGLEWVGRIKRKTDGETTDYAAPVKGRFSISRDDSKNTLYLQMNSLKTEDTAVYYCAGSNRAFDIWGQGTMVTVSA
VL: DIVMTQSPDSLAVSLGERATINCKSSQSVLYSSNNRNYLAWYQQKPGQPPKLLINQASTRASGVPDRFSGSGSGTEFTLIISSLHAEDVAIYYCQQYYTPPLAFGGGTKLEIK
notes: also called anti-CD47 antibody 1F8; control anti-CD47 monoclonal antibody 1F8
EC50 (read off the curve) [11]: 2 to 3 nM
